{"source": "paper PMC4768215", "about": "“Targeting surface-layer proteins with single-domain antibodies: a potential therapeutic approach against Clostridium difficile-associated disease” (Applied Microbiology and Biotechnology, 2015)", "binders": {"B1": {"name": "SLP_VHH46 displayed on phage (VHH)", "VHH": "QVKLEESGGGLVQAGGSLRLSCADSERTFRIYTMAWFRQAPGKERDFVAAISWSGGSTYYADSVKGRFTISRDNAKNTVYLPMNSLKPDDTAVYYCASGGVLSTGSQSDSEYDFWGQGTQVTVSS", "notes": "as the VHH of m7"}, "B2": {"name": "SLP_VHH22 displayed on phage (VHH)", "VHH": "QVQLVESGGGLVQPGGSLRLSCAASGFTLDSYAIGWFRQAPGKEHEGISCISSNGGSTYYTDSVKGRFTISRDNAKNTVYLQMNSLESEDSAVYYCATVRRCSSLDMALGALATRTKGYDYWGQGTQVTVSS", "notes": "as the VHH of m4"}, "B3": {"name": "SLP_VHH23 displayed on phage (VHH)", "VHH": "QVQLVESGGGLVQAGGSLRLSCAASGRTFSSYAVGWFRQAPGKEREFVAAISWSGGYTDYADSVKGRFTISRDNAKNTVYLQMNNLKPEDTAVYYCAADWSHPENKAELLRLRLWVLSAESSDDWGQGTQVTVSS", "notes": "as the VHH of m5"}, "B4": {"name": "SLP_VHH49 displayed on phage (VHH)", "VHH": "QVKLEESGGGLVQAGGSLRLSCAASEGAFSDALSRHAAGWFRQAPGKEREFVAAISWNGANTDYKNSVNNRFTISRDTSKNTVYLQMNSLKPEDTAVYYCAAKNEPSWISRIYYRGLEYDYWGQGTQVTVSS", "notes": "as the VHH of m8"}, "B5": {"name": "SLP_VHH50 displayed on phage (VHH)", "VHH": "QVKLEESGGGLVQPGGSLRLSCAASGFTLDYYTIGWFRQAPGKEREGVACISSDDRTYYVDSVKGRFAISRDNVKNTVYLQMNNLKPEDTAVYYCASKESVFLIATMKGCAPGHDDYWGQGTQVTVSS", "notes": "as the VHH of m9"}, "B6": {"name": "SLP_VHH12 displayed on phage (VHH)", "VHH": "QVQLVESGGGLVQAGDSLRLSCAASGGTFSSYAVGWFRQAPGKERQFVAAISWSGRSTEYADSVKGRFTISRDNAKNTVYLQMNSLQPDDTGVYYCAADWSHPENKAELLRLRLWVLSAESSDYWGQGTQVTVSS", "notes": "as the VHH of m3"}, "B7": {"name": "SLP_VHH46 (VHH)", "VHH": "B1 VHH", "notes": "From an immune llama phage display library panned on QCD-32g58 SLP; source: monomeric SEC fractions for SPR; not shown: His6, C-terminal, kept"}, "B8": {"name": "SLP_VHH2 (VHH)", "VHH": "QVKLEESGGGLVQPGGSLRLSCAASGGTFTNYAMAWFRQTPGNDREFVGIISQKGGRTYYADSVKGRFSVSRDNAKNTAYLQMNSLKPEDTAVYYCAAGDSSYYYTRSRYDIWGQGTQVTVSS", "notes": "as for B7"}, "B9": {"name": "SLP_VHH23 (VHH)", "VHH": "B3 VHH", "notes": "as for B7"}, "B10": {"name": "SLP_VHH49 (VHH)", "VHH": "B4 VHH", "notes": "as for B7"}, "B11": {"name": "SLP_VHH12 (VHH)", "VHH": "B6 VHH", "notes": "as for B7"}, "B12": {"name": "SLP_VHH5 (VHH)", "VHH": "QVKLEESGGGLVQAGGSLRLSCAASRLTFSTYHMGWFRQAPGKEREFVAALSWSGGTTYYADSVKGRFGISRDNAKNTVYLQMNSLKPEDTAVYYCASGGVLATMNSDEYDYWGQGTQVTVSS", "notes": "as for B7"}}, "data": [{"target": "T1, 630 SLP (surface layer protein of C. difficile strain 630, HMW and LMW subunits) (Clostridioides difficile 630 (ribotype …, UniProt Q183M8, strain))", "T1 construct": "low-molecular-weight (LMW) subunit of the surface layer protein, cut from the precursor SlpA by Cwp84, C. difficile strain 630 (ribotype 012); predicted mass 34.2 kDa; high-molecular-weight (HMW) subunit of the surface layer protein, cut from the precursor SlpA by Cwp84, C. difficile strain 630 (ribotype 012); predicted mass 39.5 kDa; Both subunits come from one precursor, SlpA; source: purified …", "experiment": "ELISA; monoclonal phage ELISA: phage-displayed VHHs on immobilized SLPs", "details": "one partner purified", "values": [{"binder": "B1", "binding result": "no binding"}, {"binder": "B2", "binding result": "no binding"}, {"binder": "B3", "binding result": "no binding"}, {"binder": "B4", "binding result": "no binding"}, {"binder": "B5", "binding result": "no binding"}, {"binder": "B6", "binding result": "no binding"}]}, {"target": "T1, 630 SLP (surface layer protein of C. …)", "experiment": "SPR; Biacore 3000; 630 SLP immobilised on a CM5 chip, VHHs injected at various concentrations; data not shown", "details": "both partners purified", "units": {"Kd": "nM"}, "values": [{"binder": "B7", "binding result": "no binding"}, {"binder": "B8", "Kd": 1000}, {"binder": "B9", "binding result": "no binding"}, {"binder": "B10", "binding result": "no binding"}, {"binder": "B11", "binding result": "no binding"}]}, {"target": "T2, SLP on cells of C. difficile strain BI-1 (ribotype 027) (Clostridioides difficile BI-1 (ribotype …, UniProt A0A9R0BMB3, strain))", "T2 construct": "LMW subunit of the surface layer protein (from the precursor SlpA), C. difficile strain BI-1, ribotype 027; HMW subunit of the surface layer protein (from the precursor SlpA), C. difficile strain BI-1, ribotype 027; Whole cells were the antigen; source: endogenous, on formalin-fixed C. difficile BI-1 cells", "experiment": "ELISA; whole cell ELISA: formalin-fixed C. difficile cells coated on MaxiSorp plates, His6-tagged VHH at 10 μg/ml in PBS-T, 37 °C, 1 h, detected with anti-His6-HRP", "details": "one partner purified", "values": [{"binder": "B7", "binding result": "binds"}, {"binder": "B12", "binding result": "binds"}, {"binder": "B8", "binding result": "binds"}, {"binder": "B9", "binding result": "binds"}, {"binder": "B10", "binding result": "binds"}, {"binder": "B11", "binding result": "binds"}]}, {"target": "T3, SLP on cells of C. difficile strain BI-7 (ribotype 027) (Clostridioides difficile BI-7 (ribotype …, UniProt A0A9R0BMB3, strain))", "T3 construct": "LMW subunit of the surface layer protein (from the precursor SlpA), C. difficile strain BI-7, ribotype 027; HMW subunit of the surface layer protein (from the precursor SlpA), C. difficile strain BI-7, ribotype 027; Whole cells were the antigen; source: endogenous, on formalin-fixed C. difficile BI-7 cells", "experiment": "ELISA; whole cell ELISA: formalin-fixed C. difficile cells coated on MaxiSorp plates, His6-tagged VHH at 10 μg/ml in PBS-T, 37 °C, 1 h, detected with anti-His6-HRP", "details": "one partner purified", "values": [{"binder": "B7", "binding result": "binds"}, {"binder": "B12", "binding result": "binds"}, {"binder": "B8", "binding result": "binds"}, {"binder": "B9", "binding result": "binds"}, {"binder": "B10", "binding result": "binds"}, {"binder": "B11", "binding result": "binds"}]}, {"target": "T4, SLP on cells of C. difficile strain 196 (ribotype 027) (Clostridioides difficile 196 (ribotype …, UniProt A0A9R0BMB3, strain))", "T4 construct": "LMW subunit of the surface layer protein (from the precursor SlpA), C. difficile strain 196, ribotype 027; HMW subunit of the surface layer protein (from the precursor SlpA), C. difficile strain 196, ribotype 027; Whole cells were the antigen; source: endogenous, on formalin-fixed C. difficile 196 cells", "experiment": "ELISA; whole cell ELISA: formalin-fixed C. difficile cells coated on MaxiSorp plates, His6-tagged VHH at 10 μg/ml in PBS-T, 37 °C, 1 h, detected with anti-His6-HRP", "details": "one partner purified", "values": [{"binder": "B7", "binding result": "binds"}, {"binder": "B12", "binding result": "binds"}, {"binder": "B8", "binding result": "binds"}, {"binder": "B9", "binding result": "binds"}, {"binder": "B10", "binding result": "binds"}, {"binder": "B11", "binding result": "binds"}]}, {"target": "T5, SLP on cells of C. difficile strain R20291 (ribotype 027) (Clostridioides difficile R20291 …, UniProt A0A9R0BMB3, strain)", "T5 construct": "LMW subunit of the surface layer protein (from the precursor SlpA), C. difficile strain R20291, ribotype 027; HMW subunit of the surface layer protein (from the precursor SlpA), C. difficile strain R20291, ribotype 027; Whole cells were the antigen; source: endogenous, on formalin-fixed C. difficile R20291 cells", "experiment": "ELISA; whole cell ELISA: formalin-fixed C. difficile cells coated on MaxiSorp plates, His6-tagged VHH at 10 μg/ml in PBS-T, 37 °C, 1 h, detected with anti-His6-HRP", "details": "one partner purified", "values": [{"binder": "B7", "binding result": "binds"}, {"binder": "B12", "binding result": "binds"}, {"binder": "B8", "binding result": "binds"}, {"binder": "B9", "binding result": "binds"}, {"binder": "B10", "binding result": "binds"}, {"binder": "B11", "binding result": "binds"}]}, {"target": "T6, QCD-32g58 LMW SLP (low-molecular-weight subunit of the QCD-32g58 surface layer protein) (Clostridioides difficile QCD-32g58 …, UniProt A0A9R0BMB3, strain)", "T6 construct": "low-molecular-weight (LMW) subunit of the surface layer protein, cut from the precursor SlpA by Cwp84, C. difficile strain QCD-32g58 (ribotype 027); predicted mass 33.9 kDa; also called QCD-32g58 SLP LMW subunit; LMW subunit; source: purified from C. difficile QCD-32g58 (low-pH glycine extraction, minor SEC peak at about 15 ml); in the Western blot the LMW band of the extracted SLPs", "experiment": "SPR; Biacore 3000; SEC-purified QCD-32g58 LMW SLP subunit amine-coupled to a CM5 chip; single-concentration screen, 200 nM VHH; 25 °C, 10 mM HEPES pH 7.4, 150 mM NaCl, 3 mM EDTA, 0.005 % P20", "details": "both partners purified", "units": {"Kd": "nM", "koff": "s⁻¹", "kon": "M⁻¹ s⁻¹"}, "values": [{"binder": "B7", "Kd": 2, "koff": 0.00032, "kon": 150000}, {"binder": "B12", "Kd": 3, "koff": 0.00041, "kon": 140000}, {"binder": "B8", "Kd": 90, "koff": 0.013, "kon": 150000}, {"binder": "B9", "Kd": 3, "koff": 0.00032, "kon": 110000}, {"binder": "B10", "Kd": 20, "koff": 0.012, "kon": 590000}, {"binder": "B11", "Kd": 1, "koff": 0.00012, "kon": 140000}]}, {"target": "T7, QCD-32g58 SLP (surface layer protein of C. difficile strain QCD-32g58, HMW and LMW subunits) (Clostridioides difficile QCD-32g58 …, UniProt A0A9R0BMB3, strain)", "T7 construct": "low-molecular-weight (LMW) subunit of the surface layer protein, cut from the precursor SlpA by Cwp84, C. difficile strain QCD-32g58 (ribotype 027); predicted mass 33.9 kDa; high-molecular-weight (HMW) subunit of the surface layer protein, cut from the precursor SlpA by Cwp84, C. difficile strain QCD-32g58 (ribotype 027); predicted mass 44.2 kDa; Both subunits come from one precursor, SlpA; also …", "experiment": "SPR; Biacore 3000; SEC-purified QCD-32g58 SLP amine-coupled to a CM5 chip, VHH monomer fractions injected at various concentrations; 25 °C, 10 mM HEPES pH 7.4, 150 mM NaCl, 3 mM EDTA, 0.005 % P20; KD by steady-state analysis", "details": "both partners purified", "units": {"Kd": "nM"}, "values": [{"binder": "B8", "Kd": 230}, {"binder": "B10", "Kd": 48}]}, {"target": "T7, QCD-32g58 SLP (surface layer protein of …)", "experiment": "SPR; Biacore 3000; fresh QCD-32g58 SLP surface on a CM5 chip, a single injection of each VHH (50 mM NaOH regeneration destroyed the surface); 25 °C, 10 mM HEPES pH 7.4, 150 mM NaCl, 3 mM EDTA, 0.005 % P20; KD from kinetic rate constants", "details": "both partners purified", "units": {"Kd": "nM", "koff": "s⁻¹", "kon": "M⁻¹ s⁻¹"}, "values": [{"binder": "B9", "Kd": 4, "koff": 0.00037, "kon": 94000}, {"binder": "B11", "Kd": 3, "koff": 0.00034, "kon": 120000}]}, {"target": "T7, QCD-32g58 SLP (surface layer protein of …)", "experiment": "SPR; Biacore 3000; SEC-purified QCD-32g58 SLP amine-coupled to a CM5 chip, VHH monomer fractions injected at various concentrations; 25 °C, 10 mM HEPES pH 7.4, 150 mM NaCl, 3 mM EDTA, 0.005 % P20, 20 μl/min; KD from kinetic rate constants", "details": "both partners purified", "units": {"Kd": "nM", "koff": "s⁻¹", "kon": "M⁻¹ s⁻¹"}, "values": [{"binder": "B7", "Kd": 3, "koff": 0.00034, "kon": 110000}, {"binder": "B12", "Kd": 6, "koff": 0.00046, "kon": 82000}]}]}
